Measured values from patent US20160222085A1 (CHILDREN S HOSPITAL OF PHILADELPHIA, published 2016).

Legend:
[1] = target: T1, TFPI C-terminal tail peptide; assay: fluorescence anisotropy; FVDT titrated into the TFPI peptide (label and probe concentration not stated)
T1 construct: The limits are therefore uncertain; also called TFPI peptide
T1 peptide: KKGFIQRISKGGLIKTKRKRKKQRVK

[2] = target: T2, Oregon Green 488 maleimide-modified BR (OG488-BR) (human, Oregon Green 488 maleimide on the added N-terminal Cys); assay: fluorescence anisotropy; buffer-pretreated FV-810 titrated into 30 nM OG488-BR with 50 uM PCPS
T2 construct: also called fluorescently labeled FVBR
T2 peptide: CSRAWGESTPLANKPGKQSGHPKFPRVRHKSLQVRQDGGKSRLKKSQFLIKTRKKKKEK
Description: FV-810, FV-810^R709Q (▴), FV-810^R1545Q (♦), and FV-810^QQ (▪) were pretreated with buffer (FIG. 14A) or thrombin (FIG. 14B).
(§1) Steady-state fluorescence anisotropy was measured at 25° C. in a PTI Quanta-Master™ fluorescence spectrophotometer (Photon Technology International, Birmingham, N.J.) using excitation and emission wavelengths of 480 and 520 nm, respectively, with long-pass filters (KV500, CVI Melles Griot) in the emission beam.

[3] = target: T2, Oregon Green 488 maleimide-modified BR …; assay: fluorescence anisotropy; FVDT titrated into fluorescently labeled FVBR (probe concentration not given)
[4] = target: T2, Oregon Green 488 maleimide-modified BR …; assay: fluorescence anisotropy; FV-810 titrated into 40 nM OG488-BR with 50 uM PCPS, 25 C
Description: (§2) Control experiments were performed by titrating FV-810 into buffer containing 10 mM EDTA (X) or by titrating rFVa (▴).
as §1

[5] = target: T3, Fluorescently-labeled, active site-blocked FXa (UniProt P00742 41-179; P00742 235-488, fluorescently-labeled, active site-blocked (label and blocker not named)); assay: fluorescence anisotropy; FVDT titrated into fluorescently labeled, active site-blocked FXa on PCPS liposomes, buffer only (no FVBR); concentration of labeled FXa not given
T3 construct: also called fluorescently labeled FXa

[6] = target: T2, Oregon Green 488 maleimide-modified BR …; assay: fluorescence anisotropy; FV-810 titrated into 20 nM OG488-BR with 50 uM PCPS, 25 C
Description: as §2, §1

T3 sequence (P00742 41-179 limits assumed, chain 1 of 2): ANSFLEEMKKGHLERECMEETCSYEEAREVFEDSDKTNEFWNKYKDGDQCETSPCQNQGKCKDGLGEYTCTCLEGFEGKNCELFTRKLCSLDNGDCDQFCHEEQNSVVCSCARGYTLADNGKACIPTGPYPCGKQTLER
T3 sequence (P00742 235-488 limits assumed, chain 2 of 2): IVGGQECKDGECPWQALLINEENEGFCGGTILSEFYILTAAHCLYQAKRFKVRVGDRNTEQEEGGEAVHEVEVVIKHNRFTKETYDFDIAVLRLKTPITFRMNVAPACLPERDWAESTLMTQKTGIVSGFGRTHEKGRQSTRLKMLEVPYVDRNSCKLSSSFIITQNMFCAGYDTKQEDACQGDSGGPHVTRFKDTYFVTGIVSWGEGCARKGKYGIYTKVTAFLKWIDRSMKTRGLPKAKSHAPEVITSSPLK

EC50 (read off the curve) [1]: ~10 nM | EC50 (read off the curve) [2]: 10 to 15 nM | EC50 (read off the curve) [3]: 10 to 15 nM | EC50 (read off the curve) [4]: ~10 nM | EC50 (read off the curve) [5]: 6 to 8 nM | EC50 (read off the curve) [6]: ~8 nM
B1: FV-810 (FV-DT), Factor V with amino acids 811-1491 deleted from the B-domain (other, human, UniProt P12259 29-838, looked up)
chain: AQLRQFYVAAQGISWSYRPEPTNSSLNLSVTSFKKIVYREYEPYFKKEKPQSTISGLLGPTLYAEVGDIIKVHFKNKADKPLSIHPQGIRYSKLSEGASYLDHTFPAEKMDDAVAPGREYTYEWSISEDSGPTHDDPPCLTHIYYSHENLIEDFNSGLIGPLLICKKGTLTEGGTQKTFDKQIVLLFAVFDESKSWSQSSSLMYTVNGYVNGTMPDITVCAHDHISWHLLGMSSGPELFSIHFNGQVLEQNHHKVSAITLVSATSTTANMTVGPEGKWIISSLTPKHLQAGMQAYIDIKNCPKKTRNLKKITREQRRHMKRWEYFIAAEEVIWDYAPVIPANMDKKYRSQHLDNFSNQIGKHYKKVMYTQYEDESFTKHTVNPNMKEDGILGPIIRAQVRDTLKIVFKNMASRPYSIYPHGVTFSPYEDEVNSSFTSGRNNTMIRAVQPGETYTYKWNILEFDEPTENDAQCLTRPYYSDVDIMRDIASGLIGLLLICKSRSLDRRGIQRAADIEQQAVFAVFDENKSWYLEDNINKFCENPDEVKRDDPKFYESNIMSTINGYVPESITTLGFCFDDTVQWHFCSVGTQNEILTIHFTGHSFIYGKRHEDTLTLFPMRGESVTVTMDNVGTWMLTSMNSSPRSKKLRLKFRDVKCIPDDDEDSYEIFEPPESTVMATRKMHDRLEPEDEESDADYDYQNRLAAALGIRSFRNSSLNQEEEEFNLTALALENGTEFVSSNTDIIVGSNYSSPSNISKFTVNNLAEPQKAPSHQQATTAGSPLRHLIGKNSVLNSSTAEHSSPYSEDPIEDTDYIEIIPKEEVQSSEDDYAEIDYVPYDDPYKTDVRTNINSSRDPDNIAAWYLRSNNGNRRNYYIAAEEISWDYSEFVQRETDIEDSDDIPEDTTYKKVVFRKYLDSTFTKRDPRGEYEEHLGILGPIIRAEVDDVIQVRFKNLASRPYSLHAHGLSYEKSSEGKTYEDDSPEWFKEDNAVQPNSSYTYVWHATERSGPESPGSACRAWAYYSAVNPEKDIHSGLIGPLLICQKGILHKDSNMPMDMREFVLLFMTFDEKKSWYYEKKSRSSWRLTSSEMKKSHEFHAINGMIYSLPGLKMYEQEWVRLHLLNIGGSQDIHVVHFHGQTLLENGNKQHQLGVWPLLPGSFKTLEMKASKPGWWLLNTEVGENQRAGMQTPFLIMDRDCRMPMGLSTGIISDSQIKASEFLGYWEPRLARLNNGGSYNAWSVEKLAAEFASKPWIQVDMQKEVIITGIQTQGAKHYLKSCYTTEFYVAYSSNQINWQIFKGNSTRNVMYFNGNSDASTIKENQFDPPIVARYIRISPTRAYNRPTLRLELQGCEVNGCSTPLGMENGKIENKQITASSFKKSWWGDYWEPFRARLNAQGRVNAWQAKANNNKQWLEIDLLKIKKITAIITQGCKSLSSEMYVKSYTIHYSEQGVEWKPYRLKSSMVDKIFEGNTNTKGHVKNFFNPPIISRFIRVIPKTWNQSIALRLELFGCDIY
notes: range 1-810;range 1492-2196; Single-chain cofactor-like variant; All residue numbers count on mature Factor V (add 28 for the precursor)
